CN107417789A (INST RES BIOMEDICINE, dated 2017)

Target: T1, X-31 (H3N2) 菠萝蛋白酶释放的HA (BHA) (influenza A virus X-31 (H3N2), UniProt P03437 17-344; P03437 346-520)
T1 construct: domain: 菠萝蛋白酶释放的HA (BHA)
Experiment: complex formation and size exclusion chromatography

B1: FI6变体3 Fab片段 (Fab, V domains shown)
VH: QVQLVESGGGVVQPGRSLRLSCAASGFTFSTYAMHWVRQAPGKGLEWVAVISYDANYKYYADSVKGRFTISRDNSKNTLYLQMNSLRAEDTAVYYCAKDSQLRSLLYFEWLSQGYFDYWGQGTLVTVSS
VL: not shown
- binding result: binds
